# Laboratory results reported in patent US20040265808A1, “Genes involved in osteogenesis, and methods of use” (priority 2001, published 2004).
# B1: 63 (nucleic acid, listed as Mus musculus)
# chain: CGGAATTCGCCATGTCAACAGCAGGAGTTGCTGCTCAGGATATTCGAGTCCCATTAAAAACTGGATTTCTCCATAATGGTCAGGCCTTGGGGAATATGAAGTCCTGCTGGGGCAGTCACAGTGAGTTTGAAAATAACTTTTTAAATATTGATCCAATAACCATGGCCTACAATCTGAACTCCCCTGCTCAGGAGCACCTAACAACTGTTGGATGTGCTGCTCGGTCTGCTCCAGGGAGCGGCCACTTCTTTGCAGAGTGTGGTCCATCTCCAAGGTCAAGCTTGCCCCCTCTTGTTATCTCACCAAGTGAAAGCTCGGGACAGCGTGAAGAGGATCAAGTTATGTGTGGTTTTAAGAAACTCTCAGTGAATGGGGTCTGCACTTCCACACCTCCACTTACACCCATTAAAAGCTGCCCTTCCCCTTTCCCCTGTGCGGCTCTGTGTGATCGGGGTTCTCGGCCGCTCCCGCCACTGCCCATCTCTGAAGACCTATGTGTGGATGAGGCCGACAGTGAGGTAGAGCTTCTAACCACCAGCTCAGACACAGACTTGCTTTTAGAAGACTCTGCGCCTTCAGATTTCAAATACGATGCTCCTGGCAGGCGCAGCTTCCGTGGGTGCGGCCAGATCAACTATGCATATTTTGACAGCCCAACTGTTTCTGTGGCAGATCTTAGCTGTGCATCTGACCAGAACAGAGTTGTTCCAGACCCAAACCCTCCCCCACCTCAAAGCCATCGCAGATTAAGGAGGTCTCACTCAGGACCAGCTGGGTCATTTAACAAGCCAGCCATTCGGATATCTAGCTGCACACACAGAGCTTCTCCTAGCTCTGATGAAGACAAGCCTGAGGTCCCTCCCAGGGTTCCTATACCTCCTAGGCCAGCAAAGCCAGACTATAGACGGTGGTCAGCAGAAGTGACCTCCAACACCTACAGTGATGAAGATAGGCCTCCCAAAGTCCCCCCGAGAGAACCTTTGTCTCGGAGTAACTCCCGTACCCCAAGTCCTAAAAGCCTTCCGTCTTACCTCAATGGGGTCATGCCCCCAACACAGAGCTTCGCTCCTGACCCCAAGTATGTCAGCAGCAAAGCCCTGCAGAGACAGAGCAGCGAAGGATCTGCCAACAAGGTTCCTTGCATCCTGCCCATTATTGAAAATGGGAAGAAGGTTAGCTCAACGCATTATTACTTACTACCTGAGAGGCCACCGTACCTGGACAAATATGAAAAGTATTTTAAGGAAGCAGAAGAAACAAACCCAAGCACCCAAATTCAGCCATTACCTGCTGCCTGTGGTATGGCCTCTGCCACAGAAAAGCTGGCCTCCAGAATGAAAATAGATATGGGTAGCCACGGGAAGCGCAAACACTTATCCTACGTGGTTTCTCCAGCGGCCGCTT
# B2: 68 (nucleic acid, listed as Mus musculus)
# chain: CGATCGATATGGTCACCCACAGCAAGTTTCCCGCCGCCGGGATGAGCCGCCCCCTGGACACCAGCCTGCGCCTCAAGACCTTCAGCTCCAAAAGCGAGTACCAGCTGGTGGTGAACGCCGTGCGCAAGCTGCAGGAGAGCGGATTCTACTGGAGCGCCGTGACCGGCGGCGAGGCGAACCTGCTGCTCAGCGCCGAGCCCGCGGGCACCTTTCTTATCCGCGACAGCTCGGACCAGCGCCACTTCTTCACGTTGAGCGTCAAGACCCAGTCGGGGACCAAGAACCTACGCATCCAGTGTGAGGGGGGCAGCTTTTCGCTGCAGAGTGACCCCCGAAGCACGCAGCCAGTTCCCCGCTTCGACTGTGTACTCAAGCTGGTGCACCACTACATGCCGCCTCCAGGGACCCCCTCCTTTTCTTTGCCACCCACGGAACCCTCGTCCGAAGTTCCGGAGCAGCCACCTGCCCAGGCACTCCCCGGGAGTACCCCCAAGAGAGCTTACTACATCTATTCTGGGGGCGAGAAGATTCCGCTGGTACTGAGCCGACCTCTCTCCTCCAACGTGGCCACCCTCCAGCATCTTTGTCGGAAGACTGTCAACGGCCACCTGGACTCCTATGAGAAAGTGACCCAGCTGCCTGGACCCATTCGGGAGTTCCTGGATCAGTATGATGCTCCACTTGCGGCCGCTT
# Key:
# C3H10T1/2 cells = experiment: Transient over-expression of candidate genes, cooperation with BMP2 by measurement of alkaline phosphatase; assay type: cell-based, mouse; design: key: +: positive or negative cooperation with BMP2; −: positive or negative cooperation with BMP2; settings: alkaline phosphatase
# Protocol: (§1) Mouse cell lines representing different stages of osteoblastic differentiation, C2C12, C2H10T1/2, ST2 and MC3T3-E1, were grown in the presence of agents capable of the induction of osteoblastic differentiation in vitro such as BMP2 and Sonic Hedgehog or in the presence of TGF beta (negative control) or with serum alone. Primary cells derived from mouse calvaria were also cultured for 0, 2, 7 14 and 21 days and RNA prepared for each time point. For example, C3H10T ½ and C2C12 can be obtained from the ATCC (Manassas, Va., USA) under the collection numbers CCL-226 and CRL-1772, respectively.
# (§2) The candidates genes are cloned in expression vectors and their ability to express a protein of the expected size verified by COS cells transient transfection. The genes are then transfected in C3H10T1/2 cells and/or C2C12 cells (transient over-expression) and positive or negative cooperation with BMP2 is evaluated by the measurement of alkaline phosphatase (enzymatic assay and TaqMan) at 48 hours. Controls of positive cooperation, recombinant Sonic Hedgehog, or negative cooperation, recombinant Noggin, are included in each test.
# C2C12 cells = experiment: as above; assay type: cell-based, mouse; design: key: +: positive or negative cooperation with BMP2; −: positive or negative cooperation with BMP2
# Protocol: as §1, §2
Molecule,Validation in vitro (coop over BMP2) C3H10T1/2 (C3H10T1/2 cells),Validation in vitro (coop over BMP2) C2C12 (C2C12 cells)
B1,−,−
B2,−,−
